Results as given in article PMC10764278.

Molecular target: recombinant human tau(297–391) (human) (UniProt P10636)
Assay: co-sedimentation; pelletable tau: whole assembly reaction centrifuged at 400,000g, 20 °C, 15 min, pellet and supernatant quantified by SDS-PAGE; 720 min (Fig. 2b, PHF reaction)

percent of tau pelletable: 80 to 90%
Substance: recombinant human tau(297–391) (from UniProt P10636-8 297-391) (domain or fragment)
